Source: patent US8541670B2, “Compositions and methods for inhibiting tumor cell growth” (priority 2007, dated 2013)
Blank lines part the entries; values can stand above or below the molecule they belong to. Where no end group is shown, it is not given here.

Legend:
[1] = target: T1, AKT (Homo sapiens, UniProt P31749); test: Screen of PKAc peptide library for effect on catalytic activity of AKT; assay type: biochemical; conditions: single peptide
T1 construct: purchased Upstate Biotechnology
Excerpt: Unlike PKAc and protein kinase C (PKC) for which potent inhibitor peptides are readily available and widely used, inhibitors of AKT are generally lacking (Brazil, et al. (2004) supra). […] Moreover, optimal substrate motifs for AKT have been modified to design AKT inhibitors (Obata, et al. (2000) J. Biol. Chem. 275:36108-36115). Because the full-length PKAc protein inhibited the catalytic activity of AKT, a peptide library based on the human (GENBANK Accession No. NP_002721; SEQ ID NO:1) and bovine (GENBANK Accession No. CAA47627; SEQ ID NO:2) PKAc protein sequences was designed and synthesized. This library contained 96 overlapping peptides (Table 1), covering the full-length protein sequence of human and bovine PKAc from the N- to C-terminus. The library was extensively screened to identify fragments of PKAc that mediated the inhibitory effect of PKAc toward AKT.
These peptides included peptide 49 (SEQ ID NO:56), 53 (SEQ ID NO:60), 62 (SEQ ID NO:69), 63 (SEQ ID NO:70) and 64 (SEQ ID NO:71). Combinations of consecutive overlapping peptide fragments were also assayed for an effect on the catalytic activity of AKT. A significant inhibitory effect was also observed when peptides 25 through 36 were combined (i.e., SEQ ID NOs:32-43), peptides 37 through 48 were combined (i.e., SEQ ID NOs:44-55), peptides 49 through 60 were combined (i.e., SEQ ID NOs:56-67), and peptides 61 through 72 were combined (i.e., SEQ ID NOs:68-79).

[2] = tested on: N2a cells; test: Trypan blue staining, live and dead cell count; assay type: cell-based
Excerpt: Therefore, in addition to capturing live images, cells were stained with trypan blue at different time intervals following treatment with ZaTa and counted by a light microscope using a hemocytometer.

[3] = tested on: AKT; test: AKT activity in cultured neurons treated with PKA inhibitor or activator; assay type: cell-based
Description: To evaluate the significance of the AKT-PKAc interaction, kinase inhibitors were employed. […] Thus, cultured neurons were treated with the selective PKA inhibitor, H-89, and the potent PKA activator, forskolin, and AKT activity was analyzed.

[4] = tested on: N2a cells; test: MTT cell proliferation assay; assay type: cell-based; conditions: 10 μM, 48-hour treatment (FIG. 3, series 1)
Description: In histogram series 2, treatments were removed after 24 hours and cells were incubated for another 24 hours without treatment. […] Mitochondrial activity (reflecting cellular growth and viability) in the presence of ZaTa and ZaTa variants (ZaTa T10D, ZaTa T8D, ZaTa T14R, and ZaTa Y17T) was evaluated by measuring the optical density (“OD”) at 490 nm on a plate reader. ZaTa T10D refers to a ZaTa polypeptide variant in which the Threonine (T) at position 10 of SEQ ID NO: 60 is substituted by an Aspartic Acid (D). ZaTa T8D refers to a ZaTa polypeptide variant in which the Threonine (T) at position 8 of SEQ ID NO: 60 is substituted by an Aspartic Acid (D). ZaTa T14R refers to a ZaTa polypeptide variant in which the Threonine (T) at position 14 of SEQ ID NO: 60 is substituted by an Arginine (R). ZaTa Y17T refers to a ZaTa polypeptide variant in which the Tyrosine (Y) at position 17 of SEQ ID NO: 60 is substituted by an Threonine (T).
AKT affects a network that positively regulates G1/S cell cycle progression through several mechanisms that involve the expression and subcellular localization of the CDK inhibitor p27^Kip1 (Blain and Massague (2002) Nat. Med. 8:1076-1078; Liang, et al. (2002) supra; Shin, et al. (2002) supra; Viglietto, et al. (2002) supra). Based on these studies, the effect of ZaTa peptide on cell proliferation was assessed. […] Capturing live images of cultured N2a cells in the presence of different concentrations of the ZaTa peptide confirmed an obvious reduction in the number of dividing cells.
Based on the importance of the C-terminal arm of ZaTa for its inhibitory action on AKT, it was determined whether the free hydroxyl groups on residues Thr-8, Thr-10 (equivalent to Thr-197 in full-length PKAc), Thr-14 and Tyr-17 were important for the biological activity of this peptide. Mutants of ZaTa peptide were synthesized by replacing Thr-8 or Thr-10 residues with Asp (ZaTa^T8D and ZaTa^T10D, respectively) as an amino acid with a negatively charged side chain. Mutants of ZaTa with the hydrophilic positively charged amino acid Arg at either position Thr-14 or Tyr-17 (ZaTa^T14R and ZaTa^Y17R, respectively) were also synthesized. […] The inhibitory effect of ZaTa peptide on cell proliferation was reversible, to a large extent, after the removal of ZaTa treatment (FIG. 3, histogram series 2).
Cells (5×10^3) were incubated in 96-well plates in the presence of different concentrations of the ZaTa peptide, control peptide or DMSO as vehicle. Media was removed at different time intervals and replaced with media containing MTT (5 mg/mL), and incubated for one hour at 37° C. […] The activity of the mitochondria, reflecting cellular growth and viability, was evaluated by measuring the optical density at 490 nm on a plate reader.

[5] = target: T2, AKT1 (Homo sapiens, UniProt P31749); test: AKT1 radioactive in vitro kinase assay (32P incorporation into Ser-21 GSK-3 substrate peptide); assay type: biochemical; conditions: compared with ZaTa
T2 construct: purchased Upstate Biotechnology
T2 sequence (P31749 whole entry): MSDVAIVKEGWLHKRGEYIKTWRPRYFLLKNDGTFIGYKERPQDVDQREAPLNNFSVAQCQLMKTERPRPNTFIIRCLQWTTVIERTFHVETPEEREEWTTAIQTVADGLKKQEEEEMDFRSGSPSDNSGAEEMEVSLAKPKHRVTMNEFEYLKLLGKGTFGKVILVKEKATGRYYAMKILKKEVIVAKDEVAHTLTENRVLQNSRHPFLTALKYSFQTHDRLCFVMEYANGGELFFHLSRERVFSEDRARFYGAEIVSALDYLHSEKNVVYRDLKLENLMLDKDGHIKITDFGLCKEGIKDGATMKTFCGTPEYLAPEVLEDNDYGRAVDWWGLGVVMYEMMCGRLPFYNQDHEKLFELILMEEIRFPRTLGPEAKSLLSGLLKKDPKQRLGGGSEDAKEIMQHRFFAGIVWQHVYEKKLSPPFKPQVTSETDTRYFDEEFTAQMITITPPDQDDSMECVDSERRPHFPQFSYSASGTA
Description: AKT1 catalytic activity was determined by measuring the incorporation of −^32P into Ser-21 glycogen synthase kinase 3[…] (GSK-3[…]) substrate peptide. Histogram bars represent the number of −^32P counts per minute (CPM). Reactions were carried out in the presence of different concentrations of the ZaTa peptide (SEQ ID NO:60), as well as a control peptide (SEQ ID NO:59) which shares 11 out of 17 amino acids in common with the N-terminus of the ZaTa peptide.
Of particular interest with regard to inhibitory activity toward AKT was peptide […](SEQ ID NO:60) which flanked the Thr-197 phosphorylation site of PKAc. […] Furthermore, the inhibitory effect of ZaTa peptide was compared with an adjacent peptide ([…] SEQ ID NO:59), a peptide that overlaps with the 11 N-terminal amino acid residues of the ZaTa peptide and carries the Thr-197 phosphorylation site. In this assay, the level of incorporation of −^32 P into Ser-21 GSK-3[…] substrate peptide was used as the measure of AKT1 in vitro catalytic activity.
For non-radioactive kinase assays, typically 25 ng of active AKT1 or PKAc (Upstate Biotechnology) was used in a kinase assay reaction buffer (20 mM MOPS, pH 7.2, 25 mM […]-glycerophosphate, 5 mM EGTA, 1 mM Na3VO4, 1 mM dithiothreitol, 75 mM MgCl2, and 0.5 mM ATP) in the presence of either 1 μL of Ser-9 GSK-3 GST fusion protein (Cell Signaling), or recombinant DARPP-32 (10 μg). For the radioactive kinase assays, typically 25 ng of kinase was added to the kinase assays reaction buffer (20 mM MOPS, pH 7.2, 25 mM […]-glycerophosphate, 5 mM EGTA, 1 mM Na3VO4, 1 mM dithiothreitol) containing 30 μM of dephosphorylated Ser-21 GSK-3 substrate peptide (Upstate Biotechnology) in the presence of different concentrations of inhibitor. Reactions were initiated by adding [−^32P] ATP (10 μCi/reaction) which was diluted in the reaction buffer, plus 500 μM cold ATP and 75 mM MgCl2. Kinase reactions were incubated 30° C. for 10-20 minutes. A 5 μL aliquot of the reaction was transferred to phosphocellulose paper, washed for 30 minutes with dH2O, and CPM of samples read in scintillation counter.

[6] = tested on: olfactory bulb cells; test: In vivo TUNEL in olfactory bulb after repeated intranasal delivery; set-up: species or system C57BL/6 mice; conditions: repeated intranasal treatment for three days
Excerpt: To confirm the apoptotic inducing effect of ZaTa in vivo, ZaTa was delivered to the mouse brain via the nasal cavity, a minimally invasive procedure compared to the stereotactic surgery. Intranasal delivery of compounds into the brain is an efficient and effective way for local delivery of compounds, without the need for passing the blood brain barriers, the major obstacle for studying the effect of different inhibitors/activators in CNS (Vyas, et al. (2005) Curr. Drug Deliv. 2:165-175; Hrafnkelsdottir, et al. (2005) Biol. Pharm. Bull. 28:1038-1042). […] This was visualized by double labeling of the brain sections with fluorescent TUNEL and a nuclear marker.
Depending on the intended use, a pharmaceutical composition of the invention can be administered by any suitable means, including parenteral injection (such as intraperitoneal, subcutaneous, intratumoral or intramuscular injection), orally or by topical application (e.g., transdermal or via a mucosal surface). By pharmaceutically acceptable formulation is meant, a composition or formulation that allows for the effective distribution of the nucleic acid molecules of the instant invention in the physical location most suitable for their desired activity. […]

[7] = counted at time points from 12 to 72 hours

T1 sequence (P31749 whole entry): as above

inhibitory effect toward AKT, individual library peptides [1]: significant inhibitory effects
Molecule: Y-E-M-A-A-G-Y-P-P-F-F-A (YEMAAGYPPFFA; Peptide_SEQ ID NO:71) [Peptide 64]

Molecule: AKRVKGRTWDLCGTPEY [ZaTa^T10D]
increase in the number of dead cells [2, 7]: not seen

inhibitory effect toward AKT, individual library peptides [1]: significant inhibitory effects
Molecule: G-V-L-I-Y-E-M-A-A-G-Y-P-P-F-F (GVLIYEMAAGYPPFF; Peptide_SEQ ID NO:70) [Peptide 63]

Molecule: O=S(=O)(NCCNC/C=C/c1ccc(Br)cc1)c1cccc2cnccc12 [Peptide H-89]
activity of AKT, phosphorylation level at Thr-308 and Ser-473 [3]: dose-dependent increase

inhibitory effect toward AKT, individual library peptides [1]: significant inhibitory effects
Molecule: W-A-L-G-V-L-I-Y-E-M-A-A-G-Y (WALGVLIYEMAAGY; Peptide_SEQ ID NO:69) [Peptide 62]

Molecule: ZaTa^Y17R: ZaTa mutant with Arg at position Tyr-17 (AKRVKGRTWTLCGTPER; Peptide_SEQ ID NO:60)
effect of mutation on inhibition of cell proliferation relative to ZaTa [4]: considerably augmented ZaTa activity | increase in the number of dead cells ([2]; only after 72 hours): significant increase in the number of dead cells

inhibition of AKT1 catalytic activity [5]: not able to inhibit AKT1
Molecule: GFAKRVKGRTWTL [control peptide, peptide overlapping the 11 N-terminal residues of ZaTa, reference compound]
number of apoptotic cells in olfactory bulb [6]: no change in the number of apoptotic cells

Molecule: AKRVKGRTWTLCGRPEY [ZaTa^T14R]
increase in the number of dead cells ([2]; only after 72 hours): significant increase in the number of dead cells

inhibitory effect toward AKT, individual library peptides [1]: significant inhibitory effects
Molecule: D-Q-Q-G-Y-I-Q-V-T-D-F-G-F-A-K (DQQGYIQVTDFGFAK; Peptide_SEQ ID NO:56) [Peptide 49]

Molecule: AKRVKGRDWTLCGTPEY [ZaTa^T8D]
increase in the number of dead cells [2, 7]: not seen
